Values quoted from earlier work, collected in PMC6661118.
Where two headings read alike, the source gives them in different places.

What was measured:
MDM2 (Homo sapiens) [1] = biological target: MDM2 (Homo sapiens) (UniProt Q00987)
MDM2 (Homo sapiens) [2] = biological target: MDM2 (Homo sapiens) (UniProt Q00987); remark: listed apart in the source

Chain of MDM2 (Homo sapiens) (Q00987 whole entry): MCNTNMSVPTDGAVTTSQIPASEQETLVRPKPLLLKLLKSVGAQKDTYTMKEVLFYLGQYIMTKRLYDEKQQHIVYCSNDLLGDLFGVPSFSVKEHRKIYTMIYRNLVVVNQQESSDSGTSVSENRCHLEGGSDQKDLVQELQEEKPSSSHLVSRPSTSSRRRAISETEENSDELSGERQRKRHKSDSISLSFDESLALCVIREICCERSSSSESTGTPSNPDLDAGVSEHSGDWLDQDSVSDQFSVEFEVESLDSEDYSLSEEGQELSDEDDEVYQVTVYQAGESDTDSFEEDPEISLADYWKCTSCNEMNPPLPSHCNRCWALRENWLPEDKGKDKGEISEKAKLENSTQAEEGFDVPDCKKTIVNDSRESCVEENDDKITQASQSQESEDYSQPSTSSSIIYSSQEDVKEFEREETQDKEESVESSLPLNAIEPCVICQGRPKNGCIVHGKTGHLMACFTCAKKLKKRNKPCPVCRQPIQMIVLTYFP

| Kd (MDM2 (Homo sapiens) [1]) | Kd (MDM2 (Homo sapiens) [2]) | Substance |
| --- | --- | --- |
| 55 nM | – | p53-SAH-8 (from UniProt P04637) |
| – | 410 nM | p53 (from UniProt P04637) |
